Source: paper PMC7606452

Target: recombinant K18 tau K311Q (acetylation-mimic) (human)
Assay: Thioflavin T fluorescence of heparin-induced aggregation; 10 μM K18 tau, 100 mM sodium acetate pH 7.0, 2 mM DTT, 10 μM heparin, 37 °C; 10 μM ThT, 430 nm excitation and 500 nm emission

Question: For “recombinant K18 tau K311Q (acetylation-mimic) (domain or fragment)”, which fold increase in ThT-positive fibrils against WT or K311R is on record?
Answer: 3 fold
